Data reported in patent US20250243262A1.

Assays:
[1] = target: rPcrV protein (recombinant Pseudomonas PcrV) (Pseudomonas aeruginosa); assay: SPR (Bio-Rad ProteOn XPR36); antibody captured, rPcrV as analyte; table under the sensorgram
[2] = target: rPcrV protein (recombinant Pseudomonas PcrV) (Pseudomonas aeruginosa); assay: SPR (Bio-Rad ProteOn XPR36); antibody captured on GLC sensor chip with anti-human IgG, rPcrV injected at multiple concentrations

B1: V2L2-GL (V2L2-germlined mAb) (antibody, V domains shown)
VH: EVQLLESGGGLVQPGGSLRLSCAASGFTFSSYAMNWVRQAPGKGLEWVSAITISGITAYYTDSVKGRFTISRDNSKNTLYLQMNSLRAEDTAVYYCAKEEFLPGTHYYYGMDVWGQGTTVTVSS
VL: AIQMTQSPSSLSASVGDRVTITCRASQGIRNDLGWYQQKPGKAPKLVIYSASTLQSGVPSRFSGSGSGTDFTLSISSLQPDDFATYYCLQDYNYPWTFGQGTKVEIK
A Kd [1] of 0.143 nM, a koff [1] of 0.000116 s⁻¹ and a kon [1] of 808000 M⁻¹ s⁻¹ were found for B1 in this work. The Kd [2] was 0.143 nM, the koff [2] was 0.000116 s⁻¹ and the kon [2] was 808000 M⁻¹ s⁻¹.
